From publication PMC3693578 (Molecular cell, 2012)

Biological target: T1, TSC1 (hamartin), endogenous human (human (endogenous in HeLa), UniProt Q92574 1-1164)
T1 sequence (looked up): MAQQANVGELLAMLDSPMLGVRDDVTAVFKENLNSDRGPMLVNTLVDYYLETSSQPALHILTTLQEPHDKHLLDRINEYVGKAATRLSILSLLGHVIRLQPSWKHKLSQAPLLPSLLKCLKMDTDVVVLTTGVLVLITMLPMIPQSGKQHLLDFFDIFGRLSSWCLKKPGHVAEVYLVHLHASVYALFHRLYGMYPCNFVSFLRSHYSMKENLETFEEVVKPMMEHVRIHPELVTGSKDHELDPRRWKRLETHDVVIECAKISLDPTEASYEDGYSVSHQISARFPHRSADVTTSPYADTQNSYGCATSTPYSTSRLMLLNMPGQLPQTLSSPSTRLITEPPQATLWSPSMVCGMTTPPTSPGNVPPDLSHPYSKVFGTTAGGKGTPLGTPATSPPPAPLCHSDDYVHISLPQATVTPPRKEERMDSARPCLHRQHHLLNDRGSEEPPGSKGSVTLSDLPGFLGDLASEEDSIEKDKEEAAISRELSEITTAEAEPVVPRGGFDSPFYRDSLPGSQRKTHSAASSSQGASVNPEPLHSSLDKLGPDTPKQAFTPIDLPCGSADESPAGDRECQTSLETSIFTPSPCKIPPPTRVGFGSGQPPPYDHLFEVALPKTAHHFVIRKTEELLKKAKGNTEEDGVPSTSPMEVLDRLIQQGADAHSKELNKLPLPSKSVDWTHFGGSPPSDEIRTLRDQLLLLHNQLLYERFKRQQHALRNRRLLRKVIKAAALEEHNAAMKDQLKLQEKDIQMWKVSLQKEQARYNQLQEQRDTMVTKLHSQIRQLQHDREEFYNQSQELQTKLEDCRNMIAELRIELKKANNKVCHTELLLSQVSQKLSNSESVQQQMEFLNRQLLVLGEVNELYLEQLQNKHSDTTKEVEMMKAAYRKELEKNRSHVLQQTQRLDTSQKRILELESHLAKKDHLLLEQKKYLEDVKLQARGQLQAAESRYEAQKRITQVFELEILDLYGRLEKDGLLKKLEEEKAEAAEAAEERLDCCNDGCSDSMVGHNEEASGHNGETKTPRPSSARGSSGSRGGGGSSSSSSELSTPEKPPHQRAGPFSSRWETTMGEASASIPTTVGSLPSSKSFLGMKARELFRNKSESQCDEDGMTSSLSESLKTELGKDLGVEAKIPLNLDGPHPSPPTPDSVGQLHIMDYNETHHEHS
Test: affinity purification with mass spectrometry

B1: TSC2 (tuberin), endogenous human (natural protein)
chain: not shown
  stoichiometry N: ~1
